These results are taken from patent US20210155697A1 (UNITY BIOTECHNOLOGY, published 2021).

Usually EC50 stands for the concentration at which the effect is half-maximal.

The target in assay [1] is T1, murine full-length Tie2 on HEK293 cells (mouse, UniProt Q02858 23-1122).
T1 construct: whole, on cells; also called HEK293/Murine Tie2; HEK/mTie2
The assay is described as follows: flow cytometry on HEK/mTie2 cells; Apparent Kd (EC50 binding). The source says: (§1) Briefly, expression plasmids containing the full-length Tie2 coding sequence for each species were used to transfect primary human endothelial cells (HUVECs) as well as human embryonic kidney (HEK293) cells. A stable cell population was selected by treating transfectants with puromycin antibiotic over the course of 2 weeks and single cell clones were generated using fluorescence activated cell sorting. Upon confirmation of cell surface expression of these Tie2 variants, cell lines were used to determine apparent Kd (EC50) values of anti-Tie2 antibodies on the various Tie2 proteins. […] Cells were labeled with decreasing concentrations of anti-Tie2 antibodies #1, #2, and #3 (10, 5, 2.5, 1, […], 0.63, 0.31, and 0.16 ug/mL) or non-specific hIgG1 antibody (10 ug/mL), followed by labeling with a rabbit anti-human IgG antibody conjugated to an Alexa Fluor 488 fluorophore (20 ug/ml). EC50 values were generated using ForeCyt™ software.
(In general: Flow cytometry measures light scatter and fluorescence of single cells or particles in a stream.)

Assay [2] concerns the target T2, cynomolgus monkey full-length Tie2 on HEK293 cells (cynomolgus monkey, UniProt G7PS68 23-1124).
T2 construct: whole, on cells; also called HEK293/Cyno Tie2; HEK/cyno Tie2
As to the kind of experiment: flow cytometry on HEK/cyno Tie2 cells; Apparent Kd (EC50 binding).
Description: as §1

For assay [3], the target named is T3, rabbit full-length Tie2 on HEK cells (rabbit).
T3 chain: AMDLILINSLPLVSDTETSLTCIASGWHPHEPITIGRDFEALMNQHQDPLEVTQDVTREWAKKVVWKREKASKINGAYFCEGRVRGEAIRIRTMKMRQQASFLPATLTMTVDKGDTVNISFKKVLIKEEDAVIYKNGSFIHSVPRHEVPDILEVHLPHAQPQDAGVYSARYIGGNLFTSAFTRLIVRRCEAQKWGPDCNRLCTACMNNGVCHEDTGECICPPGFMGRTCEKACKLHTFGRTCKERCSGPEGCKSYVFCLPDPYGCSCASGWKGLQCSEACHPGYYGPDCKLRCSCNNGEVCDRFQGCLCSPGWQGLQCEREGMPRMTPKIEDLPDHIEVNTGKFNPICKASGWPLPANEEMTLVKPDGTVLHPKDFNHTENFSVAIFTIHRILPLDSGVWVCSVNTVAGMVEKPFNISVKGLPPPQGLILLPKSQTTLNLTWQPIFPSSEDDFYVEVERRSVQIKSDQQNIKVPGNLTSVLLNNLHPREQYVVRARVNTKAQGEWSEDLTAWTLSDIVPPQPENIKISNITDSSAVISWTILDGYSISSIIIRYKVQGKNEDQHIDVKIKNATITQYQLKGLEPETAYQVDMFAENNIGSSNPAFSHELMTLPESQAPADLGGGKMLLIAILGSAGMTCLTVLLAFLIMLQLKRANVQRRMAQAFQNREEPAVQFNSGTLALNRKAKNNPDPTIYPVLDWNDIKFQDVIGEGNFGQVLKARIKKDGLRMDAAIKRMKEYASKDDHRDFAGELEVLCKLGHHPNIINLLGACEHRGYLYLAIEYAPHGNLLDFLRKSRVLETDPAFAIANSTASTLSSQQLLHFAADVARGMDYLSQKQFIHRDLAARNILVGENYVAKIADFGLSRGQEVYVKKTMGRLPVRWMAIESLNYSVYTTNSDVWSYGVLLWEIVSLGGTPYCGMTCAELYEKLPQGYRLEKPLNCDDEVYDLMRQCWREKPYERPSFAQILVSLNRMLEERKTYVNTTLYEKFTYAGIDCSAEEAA
As to the kind of experiment: flow cytometry on HEK/RbTie2 cells; Apparent Kd (EC50 binding).
Description: as §1

The target of assay [4] is T4, human full-length Tie2 on cells (human, UniProt Q02763 23-1124). The assay is described as follows: cell-based or functional assay.
Assay [5] deals with T2, cynomolgus monkey full-length Tie2 on …. The assay is described as follows: flow cytometry on HEK293/Cyno Tie2 cells, mAb at 10 ug/mL.
Description: as §1

Assay [6] concerns the target T4, human full-length Tie2 on cells. The assay is described as follows: flow cytometry on HEK/huTie2 cells; Apparent Kd (EC50 binding).
Description: as §1

Assay [7] deals with T5, rat full-length Tie2 on HEK cells (rat, UniProt A0ABK0L6J5 19-1116).
T5 construct: whole, on cells; also called HEK/ratTie2
As to the kind of experiment: flow cytometry on HEK/ratTie2 cells; Apparent Kd (EC50 binding).
Description: as §1

Assay [8] addresses T4, human full-length Tie2 on cells. The assay is described as follows: flow cytometry on HEK293/Human Tie2 cells, mAb at 10 ug/mL. Also on record: unit not given here.
Description: as §1
Target sequence in this assay (Q02763 23-1124 limits assumed): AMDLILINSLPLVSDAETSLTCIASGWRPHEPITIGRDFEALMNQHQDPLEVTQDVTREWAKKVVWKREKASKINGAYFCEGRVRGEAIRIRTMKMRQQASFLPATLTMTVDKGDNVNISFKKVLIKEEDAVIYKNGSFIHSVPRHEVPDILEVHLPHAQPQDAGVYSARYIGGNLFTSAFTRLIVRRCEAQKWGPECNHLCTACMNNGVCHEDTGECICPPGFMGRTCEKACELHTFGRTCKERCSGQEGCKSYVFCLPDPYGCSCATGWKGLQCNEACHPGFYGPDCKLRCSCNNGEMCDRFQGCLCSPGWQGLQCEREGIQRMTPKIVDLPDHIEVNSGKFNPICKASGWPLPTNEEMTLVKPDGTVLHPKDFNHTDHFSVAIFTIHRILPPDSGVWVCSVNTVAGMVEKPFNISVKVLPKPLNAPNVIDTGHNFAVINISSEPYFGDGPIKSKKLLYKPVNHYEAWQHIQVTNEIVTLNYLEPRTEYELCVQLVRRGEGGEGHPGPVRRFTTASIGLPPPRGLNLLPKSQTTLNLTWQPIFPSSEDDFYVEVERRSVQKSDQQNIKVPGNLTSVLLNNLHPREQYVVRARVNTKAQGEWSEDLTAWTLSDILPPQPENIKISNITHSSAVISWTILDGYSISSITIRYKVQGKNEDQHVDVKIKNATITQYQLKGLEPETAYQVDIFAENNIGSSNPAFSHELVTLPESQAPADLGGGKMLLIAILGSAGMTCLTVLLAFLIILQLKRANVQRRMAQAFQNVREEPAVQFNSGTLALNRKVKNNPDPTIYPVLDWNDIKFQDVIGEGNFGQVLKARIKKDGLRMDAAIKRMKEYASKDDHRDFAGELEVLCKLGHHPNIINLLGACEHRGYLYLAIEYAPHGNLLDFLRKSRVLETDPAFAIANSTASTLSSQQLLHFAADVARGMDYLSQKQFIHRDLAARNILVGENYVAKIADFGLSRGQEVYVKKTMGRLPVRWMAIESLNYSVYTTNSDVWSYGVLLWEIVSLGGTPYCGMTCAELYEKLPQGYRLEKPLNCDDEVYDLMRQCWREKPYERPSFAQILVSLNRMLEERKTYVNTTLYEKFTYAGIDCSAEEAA

The target is the same in assay [9]. The assay is described as follows: flow cytometry on HUVEC; Apparent Kd (EC50 binding).
Description: as §1

Assay [10] deals with T1, murine full-length Tie2 on HEK293 cells. The assay is described as follows: flow cytometry on HEK293/Murine Tie2 cells, mAb at 10 ug/mL.
Description: as §1
Target sequence in this assay (Q02858 23-1122): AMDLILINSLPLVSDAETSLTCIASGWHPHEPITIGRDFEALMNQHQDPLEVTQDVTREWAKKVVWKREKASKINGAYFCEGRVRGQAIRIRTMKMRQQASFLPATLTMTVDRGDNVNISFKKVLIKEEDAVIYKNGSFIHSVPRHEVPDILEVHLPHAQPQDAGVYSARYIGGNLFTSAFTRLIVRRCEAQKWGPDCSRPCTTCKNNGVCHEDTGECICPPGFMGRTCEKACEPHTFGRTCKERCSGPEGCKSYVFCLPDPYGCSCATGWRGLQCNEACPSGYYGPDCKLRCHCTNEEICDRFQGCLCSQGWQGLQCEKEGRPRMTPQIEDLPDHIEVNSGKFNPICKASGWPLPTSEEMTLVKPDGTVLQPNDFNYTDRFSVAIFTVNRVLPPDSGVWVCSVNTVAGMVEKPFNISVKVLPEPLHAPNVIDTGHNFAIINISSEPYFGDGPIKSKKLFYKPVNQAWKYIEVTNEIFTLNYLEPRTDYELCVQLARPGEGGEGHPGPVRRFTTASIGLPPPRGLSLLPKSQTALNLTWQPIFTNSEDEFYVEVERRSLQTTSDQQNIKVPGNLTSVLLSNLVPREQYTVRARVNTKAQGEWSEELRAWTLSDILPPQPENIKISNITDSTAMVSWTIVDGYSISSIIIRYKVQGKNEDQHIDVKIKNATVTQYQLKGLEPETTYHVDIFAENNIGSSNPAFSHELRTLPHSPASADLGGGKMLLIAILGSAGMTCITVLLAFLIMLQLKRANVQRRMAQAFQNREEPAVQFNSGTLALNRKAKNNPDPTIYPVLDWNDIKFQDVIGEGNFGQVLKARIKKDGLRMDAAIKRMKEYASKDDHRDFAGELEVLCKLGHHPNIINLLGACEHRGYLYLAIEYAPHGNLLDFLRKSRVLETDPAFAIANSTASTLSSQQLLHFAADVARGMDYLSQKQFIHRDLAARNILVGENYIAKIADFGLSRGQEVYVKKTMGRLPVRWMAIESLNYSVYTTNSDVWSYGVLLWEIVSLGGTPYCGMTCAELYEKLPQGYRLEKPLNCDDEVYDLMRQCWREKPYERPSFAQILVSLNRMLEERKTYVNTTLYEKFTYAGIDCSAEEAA

B1: human anti-Tie2 antibody #3 (antibody, V domains shown)
VH: DVQLVESGGGVVRPGESLRLSCTASGFTFDSYGMSWVRQAPGKGLEWVSSINVGDNTYYADSVRGRFIISRDSSRNTLYLQMNSLTAEDTAVYYCANWNSFFDYWGLGTLVTVSS
VL: EIVLTQSPGTLSLSPGEIATLSCRASQNVRSDLAWYQQKPGQAPRLLIYDASNRATGIPDRFSGSGSGTDFTLTISSLQSEDFAVYYCQQYSNWPPLTFGGGTKVEIK
notes: also called Ab #3; Antibody Clone # 3
Regarding B1, the EC50 in assay [1] turned out to be 6.3 nM; in assay [2], 3.7 nM; in assay [3], 3.3 nM; in assay [6], 1.9 nM; in assay [7], 4.6 nM; in assay [9], 1.7 nM. The “EC50 of pAkt relative to total Akt in HUVEC cells (western blot, quantitative fluorescence imaging)” value in assay [4] was 0.45 nM. Also, the “Cross-Reactivity Screen (mAb at 10 ug/mL)” value in assay [5] is 40.2; in [8] it was 40.2; in assay [10] it was 32.5.
